The DeepSol protein solubility set

Assay: soluble on expression in E. coli; label from the status in PepcDB or PDB records

| Sequence | soluble on expression in E. coli |
| --- | --- |
| MLTTTTNDILDQLRPLTVTKRGGAQTKFHPYKIDFVLRRLLATDDEVRVVKQALVAQYQDADNIDTRELRSTMMQILNAQGLTAAAKAYQDYFEAEQQRFAAATN | not soluble |
| MGSDKIHHHHHHMDVDLNELAGQFASGFLTVDGVYRTTLEAGRVLGHTRAYPTPKSGFLFALKGEASFVFNGTAYHLSPGKVVHGGKNMELIVKVGPAAFEYCLIHYTLHTRSNHPNDTDSHFLLEPGENLAITEKLDLLHRIKSTPGNFPEIQAKALFYTIFHDMLICARNRLNRESQLVIEQVVEYIHHHYMEPMTVKKLADMSGMGVKPFSYLFKKYIGMFPIDYLIQYRLKRAKNLLVSSNSSIADIAESIGYLDALYFSRLFKKHIGCSPTAFRAQMGNCPSDDQ | not soluble |
| SNAMLTFYEYPKCSTCRRAKAELDDLAWDYDAIDIKKNPPAASLIRNWLENSGLELKKFFNTSGQSYRALGLKDKLHQLSLDEAANLLASDGMLIKRPLLVKEGKIVQIGYRTAYEDLDF | soluble |
| MKRFFALVHKDEDSAFGVQFPDFEGLFSAADEEENLIINATEALQLYCEDMDTVPVPLKFEEVIQQKAVKKALSEGAFLIQVPFIENDSEVVRTNISIERGLLRAIDNCAQERGLTRSAFLATAARHELNI | not soluble |
| MLIPWQDLSPETLENLIESFVLREGTDYGEHERTLEQKVADVKRQLQCGEAVLVWSELHETVNIMPRSQFRE | soluble |
| AIAAIAEKAKGKEWTSTEKSREEDQQASNQPNSIALPGTSAKRTKEKMSVKGSKVLCPKKKAEHTDNPRPQKKIPIPPLPSKLPPVNLIHRDILRAWCQQLKLSSKGQKLDAYKRLCAFAYPNQKDFPSTAKEAKIRKSLQKKLKVEKGETSLQSSETHPPEVALPPVGEPPALENSTALLEGVNTVVVTTSAPEALLASWARISARARTPEAVESPQEASGVRWCVVHGKSLPADTDGWVHLQFHAGQAWVPEKQEGRVSALFLLPASNFPPPHLEDNMLCPKCVHRNKVLIKSLQWE | soluble |
| AFNNNPSSVGAYSSGTYRNLAQEMGKTNIQQKVNSTFDNMFGYNNTQQLYYPYTENGVYKAHYIKAINPDEGDDIRTEGQSWGMTAAVMLNKQEEFDNLWRFAKAYQKNPDNHPDAKKQGVYAWKLKLNQNGFVYKVDEGPAPAGEEYFAFALLNASARWGNSGEFNYYNDAITMLNTIKNKLMENQIIRFSPYIDNLTDPSYHIPAFYDYFANNVTNQADKNYWRQVATKSRTLLKNHFTKVSGSPHWNLPTFLSRLDGSPVIGYIFNGQANPGQWYEFDAWRVIMNVGLDAHLMGAQAWHKSAVNKALGFLSYAKTNNSKNCYEQVYSYGGAQNRGCAGEGQKAANAVALLASTNAGQANEFFNEFWSLSQPTGDYRYYNGSLYMLAMLHVSGNFKFYNNTFN | soluble |
| MAHHHHHHMDAAWEAHIRLDPATDAAMRSNSGSRANSGGAGTPPVTLAPPEHPFNVMSFNTASAGCSIAHCGFLRGREEDFLREVVQRLQPSSSPSAARHLLYVITSANDVYVVDVKTEVVFLHWAGGASTSGCSSSSSEASASPLGAQFIVTQAETYGALMYLTVARRSSVKTATEQAASRGCHLFSGGGGPERNVYQRCNDPAVYVLHLGCTKPLAASTTKAFIAGGGAYVIQAVSKDKPHPTSKHSRSNAASATASAGALSIRAPSVGASAATAAERIGSAGVCRRRRRWGGDPEEGAADLLRCQRTPRPQPVIDAQFVPSAAVLVPCHGAGHSSSSCKWICRNVQILLVTPTRQQLLCTAGRRRNGRREQRGPL | not soluble |
| MSLRKVVILTLVTLFTCVEYSQAQTTEKEMTRQEKKAAQEALDKMLFQEAKEAIDNQTFVLEADRVYFKYGTSAFVSSNTNFVGLDGDKAVVQVAFNVPFSGPNGLGGITVDGNASNYKVKTDKKGNIHVSMNVMGIGISAQVNIDIPYGSNNATVDILPNFNSSHMTLSGQILPLKKANVFKGRSLEGHHHHHH | soluble |
| SAEGEEEGGDVLISVGHANVLGYTLREFLQLLQHITIGTVLQIKVYRDFINIPEEWQEIYDLIPEAKFPVTSTPKKIELAKDESFTSSDDNENVDLDKRLQYYRYPWSTVHHPARRPISISRDWHGYKKKNHTISVGKDINCDVMIHRDDKKEVRAPSPYWIMVKQDNESSSSSTSSTSDAFWLEDCAQVEEGKAQLVSKVG | soluble |
| SSNVIIMGHKFPDMDSIGAAIGILKVAQANNKDGFIVIDPNQIGSSVQRLIGEIKKYEELWSRFITPEEAMEISNDDTLLVIVDTHKPSLVMEERLVNKIEHIVVIDHHRRGEEFIRDPLLVYMEPYASSTAELVTELLEYQPKRLKINMIEATALLAGIIVDTKSFSLRTGSRTFDAASYLRAKGADTVLVQKFLKETV | not soluble |
| MSLAPAAVLELPSPTGLHPVGRRTLHLVDRHRPDPWVPAARGRELMVSVSYPARSSGARPAAYMTRSEAQRLLELKGLAGVVPAATVAGTRTHAQADAPPAPGRFPLVLLSPGFSVPRTTLTALAVDVAARGYVVAAVDHAYESVGTEFPGGRVPPCVACDRVGVDVDEATVVRGRAADLSFVIDELTGRRSTGALARLIDPGRIGVAGHSIGGAAALATMAADRRVRAGVNLDGGFFVPDAGHRIGGRPFMMVGAEAVHGPGNTAGDWAATYDRLHGWKRWLTVSGAGHFSFTDIPWLAEQLGLPDPQVPLPGERGWYITRDYVGAFFDLHLRGLPQPLLHGPTSSHPEVGFHRPEGHHHHHH | soluble |
| MRRSGPELWKTLTSVSKSGQKKGRRNTRQPVRPLNRFYRIGSSPMKIEFAGLNAPIRMRETENQNLMSIAEQTEDEIRDSMGGTKKILEERDTGKKKRNREKLHPMERGFSGTQLVGQKLGAPPPLDGVNFDDFETYCLEVKRTSNMTNVFGRVHTMSALVVTGNGRGLAGYAVGKAPIHRTTTAIINGMGMASRKLFHVELHEGRTIYQDFYAECRNTRVFAQRRPRGFGLTCHPRLIKICEAIGIKDIYVKVEGSTKNYLALTHAFVTGLLNQETHQQLAERKGLHVVEMSPSRHFLPQIVASPISTELKTEETLEALDRLNLDDFYGEGRYPLRKPKSLPFFSNLEGHLDARWRKHPFRNQESTMIRLIADNMVPRWTRDARAAWADQRNERMTTGVEPMPLGIGLSHVVPKKDD | not soluble |
| MENVTESKELERLKRIDRMKTEFIANISHELRTPLTAIKAYAETIYNSLGELDLSTLKEFLEVIIDQSNHLENLLNELLDFSRLERKSLQINREKVDLCDLVESAVNAIKEFASSHNVNVLFESNVPCPVEAYIDPTRIRQVLLNLLNNGVKYSKKDAPDKYVKVILDEKDGGVLIIVEDNGIGIPDHAKDRIFEQFYRVDSSLTYEVPGTGLGLAITKEIVELHGGRIWVESEVGKGSRFFVWIPKDRAGEDNRQDN | soluble |
| MHHKAKVIGMLKETIRSGDWKGEKHVPVIEYEREGDLVKVEVSVGKEIPHPNTPEHHIAWIELYFHPEGGQFPILVGRVEFTNHSDPLTEPRAVFFFKTSKKGKLYALSYCNIHGLWENEVQLE | soluble |
| MSLGNAFIALDFETANGKRTSICSVGMVKVVNNEIVESFYTLVNPFDYFSQTNIEVHGITPEDVIDAPSFEYVFPYMMQFIDKLPVVAHNAAFDMNVLHQSLKQLNIETPSMIYFCSYQLAKRTIDAYRYGLKHLMKHYKLDFHGHHDALNDAKACAMITFRLLKHYDNLQSMLQIYGKNLKEGHHHHHH | not soluble |
| MIFEKAVIVDLRTQVLDVPVQETITKDNVPVRVNAVVYFRVVDPVKAVTQVKNYIMATSQISQTTLRSVIGQAHLDELLSERDKLNMQLQRIIDEATDPWGIKVTAVEIKDVELPAGMQKAMARQAEAERERRARITLAEAERQAAEKLREAAEIISEHPMALQLRTLQTISDVAGDKSNLEHHHHHH | soluble |
| MGSDKIHHHHHHMSDCQAKPETNYLSTSSGKYLTAFQRKLLLQNLQKSLVESYRQRIEIMLLADEGKTQRSICQTLGCCAATARHWTHIARSGMAHQWQDCPIGRPKAVNDQYLERLKELVNSSPRAHGYAFRRWTANWLGKHLAKEFGIEVSDRHIKRLLKQMGLSTLPKPSNVEQNSTEQVQGSKILICDLQSAGIPDDSEFLPINFAKLGKHLDIHGAKYICSVAYSATVQQYSGSFSFYRGISTLSSTS | not soluble |
| MYLQLLKPTLLRCSTRPSSSGAYTRSPIDQKWAAMAKKAMKGREADTLTWNTPEGIPIKPLYLRSDRDCDAQRSVELPGQFPFTRGPYPTMYTQRPWTIRQYAGFSTVEESNKFYKENIKAGQQGLSVAFDLATHRGYDSDNPRVFGDVGMAGVAVDSVEDMRQLFDGINLEKMSVSMTMNGAVVPVLAMYVVAAEEAGVSRKLLAGTIQNDILKEFMVRNTYIYPPEPSMRIIGDIFAYTSREMPKFNSISISGYHMQEAGADAVLEMAFTIADGIQYCETGLNAGLTIDAFAPRLSFFWGISMNFYMEIAKMRAARRLWANLIKERFSPKSDKSMMLRTHSQTSGWSLTEQDPYNNIIRTTIEAMASVFGGTQSLHTNSFDEALGLPTKFSARIARNTQIIIQEESGICNVADPWGGSYMMESLTDEIYEKALAVIKEIDELGGMAKAVASGMTKLKIEEAAAKKQARIDAGKDVIVGVNKYRLDHEQQVEVLKIDNAKVREEQCAKLNHIRATRDAEKAQKALDAITEGARGNGNLMELAIEAARARCTVGEISDAMEKVFNRHAAVNRLVSGAYKSEFGETSEMSQVLERVKSFADRDGRQPRIMVAKMGQDGHDRGAKVIATGFADLGFDVDVGPLFQTPLEAAQQAVDADVHVIGASSLAAGHLTLIPQLIGELKKLGRPDILVVAGGVIPPQDYKELYDAGVALVFGPGTRLPACANQILEKLEANLPEAPGKAASR | not soluble |
| MESKKRSSDKKSTEVDSMSDKESLYVSASDQPPAEITIKLEKDTKRKITIISEVENPKRARRGSADLRRQAIVNSAIRSAQSTASSRSRSRSRSRSRSTMNQQIRLARTRSASGGKLRRSRSARRRSPSSSASRSRSRSTSRTRAQSIPIRYRDRPEKIEKPIQPLPPLRLPTHLTKKSSVGSKKLPPPDCINLPSPLFILTEQQVIGASEKKTVQFVTKVLLTSKKLSLDDRKLLFAEMVEAEYVGTSRSSTDLNKSSDDEPEEEFATKIHYSSKGIYIHTVQNVRKIRSGKTSSITEEKSYANICKTKISGDHGKSTEGFLNVQCSETISVVDQKYIRSEEFKIGLTGVNVSGNVSINSSKTTFDPTKTITFSEDLMFDSKNIGITIRHSSVAEMKEMWHHEMGSFGEETSEYRELKFFFDEKKKDDNKTVGKSVVSILQGTKPSAPPASTSSSSKNSSSINSPKTPNISGSSRRSRSRAKRHKALQKRDSKTNRTPSPDRQSCKKDARPDQDPIKLSEIKVSEHVDSTGNETFYQSFPKATSTPKSPASSLNSSVLESKVKNSMQKTPDEGPSRRGAMSIRERSVSRNGDNEIDLDKSLSLKKPSASKNLASLLEKKEEARKTDVTSSMISSKPPTSPGTSVYMYNTGSANSTFMSAKDLHKERVAASTGPRSASKSPKGTLRVKETKVIREVRQEDGKPPEISEKKEETVKEEKVNLSERLRARSRASSPATPTLKRTFNQTDESNIVTLSAVKETHQTLEMTPIKVNSETVPSTSYGQRAFPESVQLDMLIDKKRLVLNVNFMLLAEKHPEVEILGFTFKGQKLWEKSSEWNLTSANTTSHTKTIARQASNILGDEEKKDEEQK | not soluble |
| MSLKIWGRKNSSNVRKALWIAHELGLDFESIDAGGAFGVVNEPHYRARNPNGLVPMLEDGDLTLWESNTIVRYLCAEYGTEQGWYLADPRQRALADKWMDWTTSSFATPFRPLFWGLLRTPEDQRDWVAINAAHKQCAQLLAIADETLASQPYLSGDQIGMGDIPLGSFIYAWFELPIERPDMYHLQAWYERLKQRPAYQAAVMTALTEGHHHHHH | soluble |
